Columns and labels:
Experiment in all cases: purified protein
purified protein [1] = substrate: O=C(O)C[C@H](O)C(=O)O; details: malate oxidation
purified protein [2] = substrate: O=C(O)CC(=O)C(=O)O; format: biochemical, Limnospira platensis; details: 0.1 mM NADH, pH 8.5, 50°C, reductive reaction
purified protein [3] = substrate: NC(=O)c1ccc[n+]([C@@H]2O[C@H](COP(=O)(O)OP(=O)(O)OC[C@H]3O[C@@H](n4cnc5c(N)ncnc54)[C@H](O)[C@@H]3O)[C@@H](O)[C@H]2O)c1; format: biochemical, Limnospira platensis; details: 1 mM malate, pH 8.5, 50°C, malate oxidation, varied: cofactor
purified protein [4] = substrate: NC(=O)C1=CN([C@@H]2O[C@H](COP(=O)(O)OP(=O)(O)OC[C@H]3O[C@@H](n4cnc5c(N)ncnc54)[C@H](O)[C@@H]3O)[C@@H](O)[C@H]2O)C=CC1; format: biochemical, Limnospira platensis; details: 0.5 mM oxaloacetate, pH 8.5, 50°C, reductive reaction, varied: cofactor
purified protein [5] = substrate: NC(=O)c1ccc[n+]([C@@H]2O[C@H](COP(=O)(O)OP(=O)(O)OC[C@H]3O[C@@H](n4cnc5c(N)ncnc54)[C@H](OP(=O)(O)O)[C@@H]3O)[C@@H](O)[C@H]2O)c1; format: biochemical, Nostoc sp. PCC 7120 = FACHB-418; details: 3 mM malate, 100 mM NH4Cl, 0.1 mM MnCl2, pH 8.8, 52°C, malate oxidation, varied: cofactor
purified protein [6] = substrate: NC(=O)C1=CN([C@@H]2O[C@H](COP(=O)(O)OP(=O)(O)OC[C@H]3O[C@@H](n4cnc5c(N)ncnc54)[C@H](OP(=O)(O)O)[C@@H]3O)[C@@H](O)[C@H]2O)C=CC1; format: biochemical, Nostoc sp. PCC 7120 = FACHB-418; details: 30 mM pyruvate, 100 mM NH4Cl, 0.1 mM MnCl2, 50 mM KHCO3, pH 8.8, 52°C, reductive reaction, varied: cofactor
purified protein [7] = substrate: CC(=O)C(=O)O; format: biochemical, Nostoc sp. PCC 7120 = FACHB-418; details: 0.1 mM NADPH, 100 mM NH4Cl, 0.1 mM MnCl2, 50 mM KHCO3, pH 8.8, 52°C, reductive reaction
purified protein [8] = substrate: O=C(O)CC(=O)C(=O)O; format: biochemical, Nostoc sp. PCC 7120 = FACHB-418; details: 0.1 mM NADH, pH 9.0, 50°C, reductive reaction
purified protein [9] = substrate: NC(=O)c1ccc[n+]([C@@H]2O[C@H](COP(=O)(O)OP(=O)(O)OC[C@H]3O[C@@H](n4cnc5c(N)ncnc54)[C@H](O)[C@@H]3O)[C@@H](O)[C@H]2O)c1; format: biochemical, Nostoc sp. PCC 7120 = FACHB-418; details: 5 mM malate, pH 9.0, 50°C, malate oxidation, varied: cofactor
purified protein [10] = substrate: NC(=O)C1=CN([C@@H]2O[C@H](COP(=O)(O)OP(=O)(O)OC[C@H]3O[C@@H](n4cnc5c(N)ncnc54)[C@H](O)[C@@H]3O)[C@@H](O)[C@H]2O)C=CC1; format: biochemical, Nostoc sp. PCC 7120 = FACHB-418; details: 0.1 mM oxaloacetate, pH 9.0, 50°C, reductive reaction, varied: cofactor
purified protein [11] = substrate: O=C(O)CC(=O)C(=O)O; format: biochemical, Synechocystis sp. PCC 6803; details: 0.1 mM NADH, pH 8.0, 50°C, reductive reaction
purified protein [12] = substrate: NC(=O)c1ccc[n+]([C@@H]2O[C@H](COP(=O)(O)OP(=O)(O)OC[C@H]3O[C@@H](n4cnc5c(N)ncnc54)[C@H](O)[C@@H]3O)[C@@H](O)[C@H]2O)c1; format: biochemical, Synechocystis sp. PCC 6803; details: 4 mM malate, pH 8.0, 50°C, malate oxidation, varied: cofactor
purified protein [13] = substrate: NC(=O)C1=CN([C@@H]2O[C@H](COP(=O)(O)OP(=O)(O)OC[C@H]3O[C@@H](n4cnc5c(N)ncnc54)[C@H](O)[C@@H]3O)[C@@H](O)[C@H]2O)C=CC1; format: biochemical, Synechocystis sp. PCC 6803; details: 0.5 mM oxaloacetate, pH 8.0, 50°C, reductive reaction, varied: cofactor
purified protein [14] = substrate: NC(=O)c1ccc[n+]([C@@H]2O[C@H](COP(=O)(O)OP(=O)(O)OC[C@H]3O[C@@H](n4cnc5c(N)ncnc54)[C@H](OP(=O)(O)O)[C@@H]3O)[C@@H](O)[C@H]2O)c1; format: biochemical, Synechocystis sp. PCC 6803; details: 3 mM malate, 100 mM NH4Cl, 0.5 mM MnCl2, pH 8.3, 50°C, malate oxidation, varied: cofactor
[15] = 8 mM NAD+, pH 8.5, 50°C, pH 8.5, 50.0 °C
[16] = 0.5 mM NADP+, 100 mM NH4Cl, 0.1 mM MnCl2, pH 8.8, 52°C, pH 8.8, 52.0 °C
[17] = 8 mM NAD+, pH 9.0, 50°C, pH 9.0, 50.0 °C
[18] = 8 mM NAD+, pH 8.0, 50°C, pH 8.0, 50.0 °C
[19] = 0.5 mM NADP+, 100 mM NH4Cl, 0.5 mM MnCl2, pH 8.3, 50°C, pH 8.3, 50.0 °C

B1: ArMDH (Limnospira platensis NIES-46) (protein)
chain: MQMASSMFFPPSCHPTQVSIIGAGKVGGTLAQRIAESNVAHVVLLDVVEGLPQGVALDLMQAGSVEGHDRKILGTNDYADTAGSDVVVITAGRPRTPGMNRNDLIETNAPIVARAVTNAIASSPNAVIIIVTNPLDVMTYIAWQVSQIEPFRIMGMAGVLDSARFQAFIATELNVSVADVNATVMGSHGDLMVPLPRYSTVNGIPITELMDTETINRLIARTRNGGAEIVGLLKTGGAYYAPASSVRTMVESILLNRRRLLPTSAYLKGEYGMKDIFLGVPCWLGCRGVEAVLELNLTDNEREALNSCAQSVREGIEKADAVLAATAAV
notes: full length, GST-tagged (pGEX6P-1), tag kept, E. coli BL21(DE3)
B1 was tested, and the K0.5 (purified protein [1]; [15]) was 0.034 ± 0.002 mM, the kcat (purified protein [1]; [15]) was 0.25 s⁻¹ and the kcat/Km (purified protein [1]; [15]) was 7300 M⁻¹ s⁻¹. For the same protein, the K0.5 (purified protein [2]) was 0.041 ± 0.001 mM, the kcat (purified protein [2]) was 1.4 ± 0.03 s⁻¹ and the kcat/Km (purified protein [2]) was 34000 ± 400 M⁻¹ s⁻¹. The K0.5 (purified protein [3]) was 0.30 ± 0.02 mM, the kcat (purified protein [3]) was 0.5 ± 0.01 s⁻¹ and the kcat/Km (purified protein [3]) was 1700 ± 100 M⁻¹ s⁻¹. For the same protein, the K0.5 (purified protein [4]) was 0.0085 ± 0.0025 mM, the kcat (purified protein [4]) was 1.7 ± 0.1 s⁻¹ and the kcat/Km (purified protein [4]) was 214000 ± 50000 M⁻¹ s⁻¹.

B2: NoME (Nostoc sp. PCC 7120 = FACHB-418) (protein)
chain: MADLTPNSSFSVTLRLQIPNRVGMLASITQAIASSGGNLGQIDLIEQTRQVSLRDLTVDAASTEHAETIVQAVKAIPDIKLVSVYDRTFNLHRGGKISITSRIPLKSVSDLAMAYTPGVGRVCTAIAQDPSQVYNLTIKQNTVAIVTDGSAVLGLGNLGPHAALPVMEGKAMLFKEFAGLDAFPICLATQDTEEIIQAVKNIAPVFGGVNLEDIAAPRCFEIEKRLRDELDIPVFHDDQHGTAIVTLAALFNSLKLVQKSLADIRIVINGAGAAGVAIARLLRKAGAEKIWMCDSKGIISTTRTDLNEEKQEFAVKAQGTLAGAVQGADVFIGVSAPGVLTPEMVKSMAKDAIVFAMANPIPEIQPELISKDVAVIATGRSDYPNQINNVLAFPGVFRGALDCRAQTITTTMYLEAASAIASLVNPSDLSREHIIPSVFDERVVTAVAAAVQRAAREEGIARG
notes: as for B1
B2 gave a K0.5 (purified protein [1]; [16]) of 0.41 ± 0.02 mM, a kcat (purified protein [1]; [16]) of 30.3 s⁻¹ and a kcat/Km (purified protein [1]; [16]) of 75000 M⁻¹ s⁻¹. It also gave a K0.5 (purified protein [5]) of 0.014 ± 0.004 mM, a kcat (purified protein [5]) of 33.4 ± 3.2 s⁻¹ and a kcat/Km (purified protein [5]) of 2.53e+06 ± 436000 M⁻¹ s⁻¹. For the same protein, the K0.5 (purified protein [6]) was 0.0074 ± 0.001 mM, the kcat (purified protein [6]) was 0.85 ± 0.03 s⁻¹ and the kcat/Km (purified protein [6]) was 116000 ± 10000 M⁻¹ s⁻¹. The K0.5 (purified protein [7]) was 6.55 ± 0.38 mM, the kcat (purified protein [7]) was 0.79 ± 0.03 s⁻¹ and the kcat/Km (purified protein [7]) was 120 ± 3 M⁻¹ s⁻¹.

B3: NoMDH (Nostoc sp. PCC 7120 = FACHB-418) (protein)
chain: MFSSPDSPILHCLPRVAIIGAGRVGSTLAQRIAEKNLADVVLLDIVEGIPQGLALDLLEARGIELHNRQIIGTNNYADTSGSQIVVITAGFPRKPGMSRDDLLRTNAKIVIEAAKQAIAYSPYAIFIVVTNPLDVMTYLAWEATGLPRNRIMGMAGVLDSARFETFIALELGVLPADVKAMVLGSHGDLMVPLSRYATVNGIPITQLLDAVTIERLVERTRNGGAEIVELMQTGGAFFAPASATSLMVESILLNQSRLLPVSIYLQGEYDLKDVVIGVPCRLGLNGIESVIELNLSDSEREALHISAKSVQKNIERWRSLQNS
notes: full length, GST-tagged (pGEX6P-1), tag kept, E. coli BL21(DE3), 10°C expression
With B3 the K0.5 (purified protein [1]; [17]) was 1.88 ± 0.56 mM, the kcat (purified protein [1]; [17]) was 3.5 s⁻¹ and the kcat/Km (purified protein [1]; [17]) was 2000 M⁻¹ s⁻¹. The K0.5 (purified protein [8]) was 0.026 ± 0.002 mM, the kcat (purified protein [8]) was 1.1 ± 0.03 s⁻¹ and the kcat/Km (purified protein [8]) was 42000 ± 2000 M⁻¹ s⁻¹. The K0.5 (purified protein [9]) was 8.45 ± 1.95 mM, the kcat (purified protein [9]) was 6.3 ± 0.5 s⁻¹ and the kcat/Km (purified protein [9]) was 770 ± 100 M⁻¹ s⁻¹. For the same protein, the K0.5 (purified protein [10]) was 0.0093 ± 0.0001 mM, the kcat (purified protein [10]) was 1.3 ± 0.1 s⁻¹ and the kcat/Km (purified protein [10]) was 142000 ± 8000 M⁻¹ s⁻¹.

B4: SyMDH (Synechocystis sp. PCC 6803 substr. Kazusa) (protein)
chain: MNILEYAPIACQSWQVTVVGAGNVGRTLAQRLVQQNVANVVLLDIVPGLPQGIALDLMAAQSVEEYDSKIIGTNEYEATAGSDVVVITAGLPRRPGMSRDDLLGKNANIVAQGAREALRYSPNAILIVVTNPLDVMTYLAWKVTGLPSQRVMGMAGVLDSARLKAFIAMKLGACPSDINTLVLGGHGDLMLPLPRYCTVSGVPITELIPPQTIEELVERTRNGGAEIAALLQTGTAYYAPASSAAVMVESILRNQSRILPAATYLDGAYGLKDIFLGVPCRLGCRGVEDILEVQLTPEEKAALHLSAEAVRLNIDVALAMVSDG
notes: full length, His-tagged (pQE80L), E. coli BL21(DE3), synthesized gene
B4 was tested, and the K0.5 (purified protein [1]; [18]) was 1.61 ± 0.37 mM, the kcat (purified protein [1]; [18]) was 1 s⁻¹ and the kcat/Km (purified protein [1]; [18]) was 640 M⁻¹ s⁻¹. The K0.5 (purified protein [11]) was 0.11 ± 0.002 mM, the kcat (purified protein [11]) was 4 ± 0.04 s⁻¹ and the kcat/Km (purified protein [11]) was 36000 ± 1000 M⁻¹ s⁻¹. It also gave a K0.5 (purified protein [12]) of 1.34 ± 0.30 mM, a kcat (purified protein [12]) of 1.8 ± 0.1 s⁻¹ and a kcat/Km (purified protein [12]) of 1400 ± 200 M⁻¹ s⁻¹. It also gave a K0.5 (purified protein [13]) of 0.018 ± 0.002 mM, a kcat (purified protein [13]) of 6.6 ± 0.5 s⁻¹ and a kcat/Km (purified protein [13]) of 364000 ± 19000 M⁻¹ s⁻¹.

B5: SyME (Synechocystis sp. PCC 6803 substr. Kazusa) (protein)
chain: MVSLTPNPSYSVSLLLELPNHAGTLASVTQAIADAGGSFGQISLIESNLKLTRREIAVDASSSEHAEKIIGAVKALDNVKLLKVSDRTFDLHRQGKISVVSRIPLTSQSDLAMAYTPGVGRICRAIAEDPEKVYSLTIKSNTVAVVTDGSAVLGLGNLGPEAALPVMEGKAMLFKEFAQLDAFPICLDTQDTEEIIRTVKAIAPVFGGVNLEDIAAPRCFEIEARLKKELNIPVFHDDQHGTAIVTLAALLNALKFVGKAMAAVRIVINGAGAAGLAIAELLKESGATDIWICDSKGIVGKHRTDLNSKKQSFAVDAEGTLADAMAGADVFLGVSAPGVVTKEMVQSMAKDPIVFAMANPIPEIQPELIQEDAAVIATGRSDYPNQINNVLAFPGVFRGAIDCRASIITTTMCIEAAKAIASLVHSNTLDSEHIIPSVFDNRVATTVASAVQLAARNEGVAGQ
notes: as for B4
For B5, the K0.5 (purified protein [1]; [19]) was 0.46 ± 0.06 mM, the kcat (purified protein [1]; [19]) was 77.2 s⁻¹ and the kcat/Km (purified protein [1]; [19]) was 169000 M⁻¹ s⁻¹. For the same protein, the K0.5 (purified protein [14]) was 0.015 ± 0.001 mM, the kcat (purified protein [14]) was 55.7 ± 3.3 s⁻¹ and the kcat/Km (purified protein [14]) was 3.689e+06 ± 23000 M⁻¹ s⁻¹.
